Consider 1 substance from paper doi:10.1101/2024.10.07.616643.

The target in the assay is F-actin (rabbit skeletal muscle α-actin filaments) (rabbit) (UniProt P68135). Put plainly: co-sedimentation.

F-tractinopt-mCherry (peptide): the Kd came out at 8.5 µM. In other words, the single-digit micromolar range.
